Assay results from article PMC4729957, “The Atg1–kinase complex tethers Atg9-vesicles to initiate autophagy” (Nature Communications, 2016).

T1: Atg9^core (Atg9^281–779), reconstituted in proteoliposomes (S. cerevisiae, UniProt Q12142 281-779)
T1 construct: Atg9, S. cerevisiae BY4741, conserved core region, residues 281–779; modified pET28a(+) vector; about 50% of the protein in the proteoliposomes has its cytoplasmic domains outside; liposomes of cholesterol, POPE, POPC, POPS, without PI; also called Atg9–PLs; Atg9-PL; source: E. coli Rosetta, solubilised in LDAO, purified (Ni-NTA, SEC), reconstituted in liposomes; not shown: His tag, C-terminal, …
T1 sequence (looked up): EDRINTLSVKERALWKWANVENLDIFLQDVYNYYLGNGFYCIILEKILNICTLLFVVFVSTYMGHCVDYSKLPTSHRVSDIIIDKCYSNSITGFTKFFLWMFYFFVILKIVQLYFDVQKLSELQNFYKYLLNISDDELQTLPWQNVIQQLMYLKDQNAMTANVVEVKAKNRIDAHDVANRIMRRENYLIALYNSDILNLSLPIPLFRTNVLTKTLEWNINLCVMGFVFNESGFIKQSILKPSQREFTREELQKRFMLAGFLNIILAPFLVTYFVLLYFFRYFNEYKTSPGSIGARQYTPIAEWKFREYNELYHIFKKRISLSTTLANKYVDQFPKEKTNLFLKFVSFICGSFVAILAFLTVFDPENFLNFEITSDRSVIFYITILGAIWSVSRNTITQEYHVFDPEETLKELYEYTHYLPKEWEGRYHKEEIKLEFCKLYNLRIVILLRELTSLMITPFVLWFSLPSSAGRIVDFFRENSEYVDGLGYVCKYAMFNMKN

T2: Atg1 (S. cerevisiae, UniProt P53104 1-897, phosphothreonine at 226 (T226))
T2 construct: Atg1, S. cerevisiae BY4741, open reading frame from genomic DNA; also called full-length Atg1; Atg1–kinase; source: High Five (BTI-TN-5B1–4) insect cells, purified (Ni-NTA, SEC)
T2 sequence (looked up): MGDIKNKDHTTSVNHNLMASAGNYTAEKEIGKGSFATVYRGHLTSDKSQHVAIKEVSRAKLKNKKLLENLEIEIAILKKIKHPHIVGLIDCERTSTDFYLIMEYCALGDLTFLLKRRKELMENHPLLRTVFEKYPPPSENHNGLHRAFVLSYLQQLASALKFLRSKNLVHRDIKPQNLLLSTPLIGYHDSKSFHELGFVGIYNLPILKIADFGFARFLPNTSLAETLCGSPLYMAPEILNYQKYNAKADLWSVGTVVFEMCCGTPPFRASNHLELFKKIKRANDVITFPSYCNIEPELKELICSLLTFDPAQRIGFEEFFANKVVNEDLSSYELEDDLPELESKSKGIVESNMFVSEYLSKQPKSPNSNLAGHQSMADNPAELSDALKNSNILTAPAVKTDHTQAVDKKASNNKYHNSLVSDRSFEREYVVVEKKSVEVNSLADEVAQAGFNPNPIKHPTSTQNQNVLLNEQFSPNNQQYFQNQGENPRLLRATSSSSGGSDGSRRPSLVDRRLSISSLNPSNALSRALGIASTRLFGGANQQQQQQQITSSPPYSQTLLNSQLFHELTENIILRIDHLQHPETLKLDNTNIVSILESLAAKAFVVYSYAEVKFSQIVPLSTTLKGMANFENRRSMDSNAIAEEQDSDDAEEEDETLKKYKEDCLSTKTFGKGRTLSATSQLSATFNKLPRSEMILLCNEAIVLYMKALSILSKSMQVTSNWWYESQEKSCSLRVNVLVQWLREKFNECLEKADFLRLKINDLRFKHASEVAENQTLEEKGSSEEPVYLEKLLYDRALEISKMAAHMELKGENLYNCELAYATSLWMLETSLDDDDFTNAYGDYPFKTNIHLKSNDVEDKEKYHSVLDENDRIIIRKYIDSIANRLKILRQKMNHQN

B1: Atg17 (natural protein, S. cerevisiae, UniProt Q06410 1-417, looked up)
chain: MNEADVTKFVNNARKTLTDAQLLCSSANLRIVDIKKKLSSWQLSISKLNFLIVGLRQQGKFLYTILKEGIGTKLIQKQWNQAVLVVLVDEMKYWQYEITSKVQRLDGIVNELSISEKDDTDPSKLGDYISRDNVNLLNDKLKEVPVIERQIENIKLQYENMVRKVNKELIDTKLTDVTQKFQSKFGIDNLMETNVAEQFSRELTDLEKDLAEIMNSLTQHFDKTLLLQDKKIDNDEREELFKVVQGDDKELYNIFKTLHEVIDDVDKTILNLGQFLQAKIKEKTELHSEVSEIINDFNRNLEYLLIFKDISNLIDSFKNSCTQDIQTTKELCEFYDNFEESYGNLVLEAKRRKDVANRMKTILKDCEKQLQNLDAQDQEERQNFIAENGTYLPETIWPGKIDDFSSLYTLNYNVKNP
notes: Atg17, S. cerevisiae BY4741, open reading frame from genomic DNA; expressed from pST39; also called full-length Atg17; Atg17-dimer; source: E. coli Rosetta, purified (Ni-NTA, SEC); not shown: His6, N-terminal, cleaved
B2: Atg13(P), Atg13 phosphorylated by Atg1 in vitro (natural protein, S. cerevisiae, UniProt Q06628 1-738, looked up)
chain: MVAEEDIEKQVLQLIDSFFLKTTLLICSTESSRYQSSTENIFLFDDTWFEDHSELVSELPEIISKWSHYDGRKELPPLVVETYLDLRQLNSSHLVRLKDHEGHLWNVCKGTKKQEIVMERWLIELDNSSPTFKSYSEDETDVNELSKQLVLLFRYLLTLIQLLPTTELYQLLIKSYNGPQNEGSSNPITSTGPLVSIRTCVLDGSKPILSKGRIGLSKPIINTYSNALNESNLPAHLDQKKITPVWTKFGLLRVSVSYRRDWKFEINNTNDELFSARHASVSHNSQGPQNQPEQEGQSDQDIGKRQPQFQQQQQPQQQQQQQQQQQRQHQVQTQQQRQIPDRRSLSLSPCTRANSFEPQSWQKKVYPISRPVQPFKVGSIGSQSASRNPSNSSFFNQPPVHRPSMSSNYGPQMNIEGTSVGSTSKYSSSFGNIRRHSSVKTTENAEKVSKAVKSPLQPQESQEDLMDFVKLLEEKPDLTIKKTSGNNPPNINISDSLIRYQNLKPSNDLLSEDLSVSLSMDPNHTYHRGRSDSHSPLPSISPSMHYGSLNSRMSQGANASHLIARGGGNSSTSALNSRRNSLDKSSNKQGMSGLPPIFGGESTSYHHDNKIQKYNQLGVEEDDDDENDRLLNQMGNSATKFKSSISPRSIDSISSSFIKSRIPIRQPYHYSQPTTAPFQAQAKFHKPANKLIDNGNRSNSNNNNHNGNDAVGVMHNDEDDQDDDLVFFMSDMNLSKEG
modifications: phosphoserine at 428, 429 and 496 and at several other positions (Supplementary Table 1)
notes: Atg13, S. cerevisiae BY4741; also called phosphorylated Atg13; source: E. coli Rosetta, purified; phosphorylated by adding ATP to fully assembled Atg1^PC
B3: Atg13 (natural protein, S. cerevisiae, UniProt Q06628 1-738, looked up)
chain: B2 chain
notes: Atg13, S. cerevisiae BY4741, open reading frame from genomic DNA; source: E. coli Rosetta, purified (Ni-NTA, anion exchange)

Legend:
Atg13 = target: B3; assay: SEC; complexes assembled from purified subunits or subcomplexes, 30 min at room temperature, then gel filtration on Superose 6; conditions: both partners purified
[1] = target: the molecule itself; assay: dynamic light scattering; Stokes radii (RH) of the purified proteins and complexes in solution
[2] = target: T1, Atg9^core (Atg9^281–779), reconstituted …; assay: co-floatation with proteoliposomes; Atg9 variant held in proteoliposomes (synthetic lipids without PI), partner in solution at 1:1, Nycodenz step gradient, 650,000g 2 h at 4 °C, 25 mM HEPES pH 7.0, 100 mM NaCl; top fraction read by SDS–PAGE or α-myc immunoblot; conditions: both partners purified
Atg1 [3] = target: T2, Atg1; assay: SEC; ATP added to fully assembled Atg1^PC (Atg13, Atg29 and Atg1 become phosphorylated by Atg1); SEC and SDS–PAGE of the fractions; conditions: both partners purified
Atg1 [4] = target: T2, Atg1; assay: SEC; complexes assembled from purified subunits or subcomplexes, 30 min at room temperature, then gel filtration on Superose 6; conditions: both partners purified

Binder: B1
binding result (Atg13): binds
stoichiometry N [1]: 2
binding result [2]: binds

Binder: B2
binding result (Atg1 [3]): binds

Binder: B3
binding result (Atg1 [4]): binds
